The target of the experiment is p56Rb, carboxyl terminus of the Rb protein (Homo sapiens (Human), UniProt P06400). The experiment is described as follows: native polyacrylamide gel of the purified proteins, silver stain.

B1: chimeric p48 protein containing a modified C-terminus, encoded by plasmid pET-48NB (other)
chain: MADKEAAFDDAVEERVINEEYKIWKKNTPFLYDLVMTHALEWPSLTAQWLPDVTRPEGKDFSIHRLVLGTHTSDEQNHLVIASVQLPNDDAQFDASHYDSEKGEFGGFGSVSGKIEIEIKINHEGEVNRARYMPQNPCIIATKTPSSDVLVFDYTKHPSKPDPSGECNPDLRLRGHQKEGYGLSWNPNLSGHLLSASDDHTICLWDISAVPKEGKVVDAKTIFTGHTAVVEDVSWHLLHESLFGSVADDQKLMIWDTRSNNTSKPSHSVDAHTAEVNCLSFNPYSEFILATGSADKTVALWDLRNLKLKLHSFESHKDEIFQVQWSPHNETILASSGTDRRLNVWDLSKIGEEQSPEDAEDGPPELLFIHGGHTAKISDFSWNPNEPWVICSVSEDNIMQVWQMAENIYNDEDPEGSVDPAANKARKEAELAAANAEQ
Turning to B1, the binding result is listed as “binds”.

The values above are taken from US6071715, “Nucleic acids encoding novel proteins which bind to retinoblastoma protein” (Board of Regents, The University of Texas System, dated 2000).
